Measurements taken from the Immune Epitope Database (IEDB).
Values belong to the sequence of their own block, whether it stands above or below them.

How the values were obtained:
HLA-B*15:17 = assay: IEDB peptide-MHC binding, purified MHC/competitive/fluorescence; filed as Kd, often an IC50 or EC50 that approximates it; ≥ and ≤ were set here for values at or beyond the usual limits of such assays; settings: source organism: Entamoeba histolytica HM-1:IMSS
HLA-B*46:01 = assay: as above; settings: source organism: Entamoeba histolytica HM-1:IMSS
HLA-A*69:01 [1] = assay: as above; settings: source organism: Entamoeba histolytica HM-1:IMSS
HLA-B*27:03 = assay: as above; settings: source organism: Entamoeba histolytica HM-1:IMSS
HLA-A*02:03 [2] = assay: as above; settings: source organism: Entamoeba histolytica HM-1:IMSS
HLA-B*15:01 [3] = assay: as above; settings: source organism: Entamoeba histolytica HM-1:IMSS
HLA-A*03:01 [4] = assay: as above; settings: source organism: Entamoeba histolytica HM-1:IMSS
HLA-A*80:01 = assay: as above; settings: source organism: Entamoeba histolytica HM-1:IMSS
HLA-A*02:01 [5] = assay: as above; settings: source organism: Entamoeba histolytica HM-1:IMSS
HLA-A*23:01 = assay: as above; settings: source organism: Entamoeba histolytica HM-1:IMSS
HLA-B*51:01 = assay: as above; settings: source organism: Entamoeba histolytica HM-1:IMSS
HLA-A*68:02 = assay: as above; settings: source organism: Entamoeba histolytica HM-1:IMSS
HLA-A*29:02 = assay: as above; settings: source organism: Entamoeba histolytica HM-1:IMSS
HLA-A*02:11 [6] = assay: as above; settings: source organism: Entamoeba histolytica HM-1:IMSS
HLA-A*02:12 [7] = assay: as above; settings: source organism: Entamoeba histolytica HM-1:IMSS
HLA-A*26:01 = assay: as above; settings: source organism: Entamoeba histolytica HM-1:IMSS
HLA-B*39:01 = assay: as above; settings: source organism: Entamoeba histolytica HM-1:IMSS
HLA-B*57:01 = assay: as above; settings: source organism: Entamoeba histolytica HM-1:IMSS
HLA-A*02:19 [8] = assay: as above; settings: source organism: Entamoeba histolytica HM-1:IMSS
HLA-B*18:01 = assay: as above; settings: source organism: Entamoeba histolytica HM-1:IMSS
HLA-A*24:03 = assay: as above; settings: source organism: Entamoeba histolytica HM-1:IMSS
HLA-A*25:01 = assay: as above; settings: source organism: Entamoeba histolytica HM-1:IMSS
HLA-A*02:16 [9] = assay: as above; settings: source organism: Entamoeba histolytica HM-1:IMSS
HLA-A*02:50 = assay: as above; settings: source organism: Yersinia pestis Nepal516
HLA-B*58:01 = assay: IEDB peptide-MHC binding, purified MHC/direct/fluorescence; filed as Kd, often an IC50 or EC50 that approximates it; ≥ and ≤ were set here for values at or beyond the usual limits of such assays; settings: source organism: Yersinia pestis
HLA-B*27:05 = assay: as above; settings: source organism: Yersinia pestis
HLA-A*02:06 = assay: as above; settings: source organism: Yersinia pestis CA88-4125
HLA-A*31:01 [10] = assay: as above; settings: source organism: Yersinia pestis
HLA-A*69:01 [11] = assay: as above; settings: source organism: Yersinia pestis
HLA-A*02:03 [12] = assay: as above; settings: source organism: Yersinia pestis CA88-4125
HLA-B*15:01 [13] = assay: as above; settings: source organism: Yersinia pestis
HLA-A*03:01 [14] = assay: as above; settings: source organism: Yersinia pestis
HLA-B*44:02 = assay: as above; settings: source organism: Yersinia pestis
HLA-A*02:01 [15] = assay: as above; settings: source organism: Yersinia pestis
HLA-B*08:01 = assay: as above; settings: source organism: Yersinia pestis CA88-4125
HLA-A*01:01 = assay: as above; settings: source organism: Yersinia pestis
HLA-B*08:02 = assay: as above; settings: source organism: Yersinia pestis CA88-4125
HLA-A*02:11 [16] = assay: as above; settings: source organism: Yersinia pestis CA88-4125
HLA-A*02:12 [17] = assay: as above; settings: source organism: Yersinia pestis CA88-4125
HLA-B*07:02 = assay: as above; settings: source organism: Yersinia pestis
HLA-A*02:19 [18] = assay: as above; settings: source organism: Yersinia pestis CA88-4125
HLA-A*11:01 = assay: as above; settings: source organism: Yersinia pestis
HLA-A*02:16 [19] = assay: as above; settings: source organism: Yersinia pestis CA88-4125
HLA-B*40:01 = assay: as above; settings: source organism: Yersinia pestis
HLA-A*31:01 [20] = assay: IEDB peptide-MHC binding, purified MHC/competitive/fluorescence; ≥ and ≤ were set here for values at or beyond the usual limits of such assays; settings: source organism: Homo sapiens

Sequence: LICYQIEYI
Kd (HLA-B*15:17): ≥ 20 µM
Kd (HLA-B*46:01): ≥ 20 µM
Kd (HLA-A*69:01 [1]): ≥ 20 µM
Kd (HLA-B*27:03): ≥ 20 µM
Kd (HLA-A*02:03 [2]): ≥ 20 µM
Kd (HLA-B*15:01 [3]): ≥ 20 µM
Kd (HLA-A*03:01 [4]): ≥ 20 µM
Kd (HLA-A*80:01): ≥ 20 µM
Kd (HLA-A*02:01 [5]): ≥ 20 µM
Kd (HLA-A*23:01): ≥ 20 µM
Kd (HLA-B*51:01): ≥ 20 µM
Kd (HLA-A*68:02): ≥ 20 µM
Kd (HLA-A*29:02): ≥ 20 µM
Kd (HLA-A*02:11 [6]): 0.0008 µM
Kd (HLA-A*02:12 [7]): ≥ 20 µM
Kd (HLA-A*26:01): ≥ 20 µM
Kd (HLA-B*39:01): ≥ 20 µM
Kd (HLA-B*57:01): ≥ 20 µM
Kd (HLA-A*02:19 [8]): ≥ 20 µM
Kd (HLA-B*18:01): ≥ 20 µM
Kd (HLA-A*24:03): ≥ 20 µM
Kd (HLA-A*25:01): ≥ 20 µM
Kd (HLA-A*02:16 [9]): ≥ 20 µM

Sequence: FLPPQIPVI
Kd (HLA-A*02:50): ≤ 0.0001 µM
Kd (HLA-B*58:01): ≥ 20 µM
Kd (HLA-B*27:05): ≥ 20 µM
Kd (HLA-A*02:06): ≤ 0.001 µM
Kd (HLA-A*31:01 [10]): ≥ 20 µM
Kd (HLA-A*69:01 [11]): 4.7 µM
Kd (HLA-A*02:03 [12]): ≤ 0.001 µM
Kd (HLA-B*15:01 [13]): 0.477 µM
Kd (HLA-A*03:01 [14]): ≥ 20 µM
Kd (HLA-B*44:02): ≥ 20 µM
Kd (HLA-A*02:01 [15]): 0.0214 µM
Kd (HLA-B*08:01): ≥ 20 µM
Kd (HLA-A*01:01): ≥ 20 µM
Kd (HLA-B*08:02): ≥ 20 µM
Kd (HLA-A*02:11 [16]): ≤ 0.001 µM
Kd (HLA-A*02:12 [17]): ≤ 0.001 µM
Kd (HLA-B*07:02): ≥ 20 µM
Kd (HLA-A*02:19 [18]): 0.018 µM
Kd (HLA-A*11:01): ≥ 20 µM
Kd (HLA-A*02:16 [19]): ≤ 0.001 µM
Kd (HLA-B*40:01): ≥ 20 µM

IC50 (HLA-A*31:01 [20]): 0.388 µM
Sequence: TMGTGTFGR
